Test results as given in US20170267750A1 (CELLDEX THERAPEUTICS, published 2017).
Changes are numbered by the printed parent chain.

Legend:
[1] = biological target: T1, TIM-1 (T cell, immunoglobulin domain and mucin domain 1), cell membrane-bound (human, UniProt Q96D42 21-364); test: FACS on CAKI-2 cells, normalised to isotype control pK16
T1 construct: whole, on cells; also called TIM-1 antigen expressed on ACHN, CAKI-2, CAKI-1 cells; TIM-1 on polarized human CD4+ Th1/Th2 cells
T1 sequence (looked up): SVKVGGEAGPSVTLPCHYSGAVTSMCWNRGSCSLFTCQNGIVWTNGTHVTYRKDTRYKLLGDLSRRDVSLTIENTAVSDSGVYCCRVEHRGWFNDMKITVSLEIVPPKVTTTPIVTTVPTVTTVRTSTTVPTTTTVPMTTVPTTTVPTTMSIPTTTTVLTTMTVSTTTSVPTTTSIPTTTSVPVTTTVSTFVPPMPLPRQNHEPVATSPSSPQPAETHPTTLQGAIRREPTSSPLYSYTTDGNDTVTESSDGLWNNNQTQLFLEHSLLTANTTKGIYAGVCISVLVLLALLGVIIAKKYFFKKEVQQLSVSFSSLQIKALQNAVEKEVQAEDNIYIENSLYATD

[2] = biological target: T2, TIM-1 antigen, soluble extracellular domain of TIM-1 (CG57008-02) with a V5-HIS tag (human, UniProt Q96D42 21-288); test: BIAcore 2000, 25 C, mAb captured on goat anti-human surface, TIM-1 antigen injected at 292 nM
T2 construct: also called TIM-1 immunogen; TIM-1 protein
T2 sequence: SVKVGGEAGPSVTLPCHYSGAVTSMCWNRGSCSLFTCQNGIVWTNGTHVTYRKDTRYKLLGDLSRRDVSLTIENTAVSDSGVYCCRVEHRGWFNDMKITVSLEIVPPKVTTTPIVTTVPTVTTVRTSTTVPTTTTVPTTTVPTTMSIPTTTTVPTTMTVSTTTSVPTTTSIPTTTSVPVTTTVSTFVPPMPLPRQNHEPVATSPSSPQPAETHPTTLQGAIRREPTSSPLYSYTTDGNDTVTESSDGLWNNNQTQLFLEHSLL

[3] = biological target: T1, TIM-1 (T cell, immunoglobulin domain …); test: FACS on ACHN cells, normalised to isotype control pK16
[4] = biological target: T3, alanine scan peptide PMPLARQNHE; test: ELISA on coated synthetic peptide (alanine scan)
T3 construct: Synthetic; third P replaced by A
T3 peptide: PMPLARQNHE

[5] = biological target: T4, alanine scan peptide PMPLPRQAHE; test: ELISA on coated synthetic peptide (alanine scan)
T4 construct: Synthetic; N replaced by A
T4 peptide: PMPLPRQAHE

B1: anti-TIM-1 monoclonal antibody 2.59 (antibody, V domains shown)
VH: QSGPRLVKPSQTLSLTCTVSGGSISSDGYYWSWIRQHPGKGLEWIGYIYYSGSTFYNPSLKSRVAISVDTSKNQFSLKLSSVTAADTAVYYCARESPHSSNWYSGFDCWGQGTLVTVSS
VL: TQSPDFQSVTPKEKVTITCRASQSIGSRLHWYQQKPDQSPKLLIKYASQSFSGVPSRFSGSGSGTDFTLTINSLEAEDAATYYCHQSSNLPFTFGPGTKVDIKR
[1]
  Geo Mean Ratio (relative to negative control): 7.7 ratio
[2]
  Kd: 0.38 nM
[3]
  Geo Mean Ratio (relative to negative control): 15.2 ratio

B2: anti-TIM-1 monoclonal antibody 1.29 (antibody, V domains shown)
VH: QVQLQESGPGLVKPSETLSLTCTVSGGSVSSGGYYWSWIRQPPGKGLEWIGFIYYTGSTNYNPSLKSRVSISVDTSKNQFSLKLSSVTAADAAVYYCARDYDWSFHFDYWGQGTLVTVSS
VL: DIQMTQSPSSLSASIGDRVTITCRASQGIRNDLGWYQQKPGKAPKRLIYAASSLQSGVPSRFSGSGSGTEFTLTISSLQPEDFATYYCLQHNSYPLTFGGGTKVEIKR
notes: also called mAb 1.29
[2]
  Kd: 3.64 nM
[3]
  Geo Mean Ratio (relative to negative control): 17.9 ratio

B3: anti-TIM-1 monoclonal antibody 2.16 (antibody, V domains shown)
VH: EQSGGGVVKPGGSLRLSCAASGFTFSNAWMTWVRQAPGKGLEWVGRIKRRTDGGTTDYAAPVKGRFTISRDDSKNTLYLQMNNLKNEDTAVYYCTSVDNDVDYWGQGTLVTVSS
VL: not shown
notes: also called 2.16.1 (subclone)
[2]
  Kd: 0.79 nM
[3]
  Geo Mean Ratio (relative to negative control): 7.9 ratio

B4: anti-TIM-1 monoclonal antibody 1.37 (antibody, V domains shown)
VH: EVQLVESGGGLVQPGGSLRLSCAASGFTFTNYWMSWVRQAPGKGLEWVANIQQDGSEKYYVDSVRGRFTISRDNAKNSLYLQMNSLRAEDSAVYYCARWDYWGQGTLVTVSS
VL: DIVMTQTPLSSTVILGQPASISCRSSQSLVHSDGNTYLNWLQQRPGQPPRLLIYMISNRFSGVPDRFSGSGAGTDFTLKISRVEAEDVGVYYCMQATESPQTFGQGTKVEIKR
[2]
  Kd: 2.78 nM

B5: anti-TIM-1 monoclonal antibody 2.76 (antibody, V domains shown)
VH: EQSGGGVVQPGRSLRLSCAASGFTFSSYGMYWVRQAPGKGLEWVAVIWYDGSNKYYADSVKGRFTISRDNSKNTLYLQMNSLRAEDTAVYYCARDFYDSSRYHYGMDVWGQGTTVTVSS
VL: TQCPLSLPVTPGEPASISCRSSQSLLDSDDGNTYLDWYLQKPGQSPQLLIYTVSYRASGVPDRFSGSGSGTDFTLKISRVEAEDVGVYYCMQRIEFPITFGQGTRLEIKR
[2]
  Kd: 0.57 nM

B6: anti-TIM-1 monoclonal antibody 2.61 (antibody, V domains shown)
VH: QVQLVEAGGGVVQPGRSLRLSCAASGFTFRSYGMHWVRQAPGKGLKWVAVIWYDGSNKYYTDSVKGRFTISRDNSKNTLYLQMNSLRAEDTAVYYCVRDYYDNSRHHWGFDYWGQGTLVTVSS
VL: B2 VL with L11R, S12C, I15V, G34A, G66R, T85A, L96P, T97S, G100Q, V104L
[2]
  Kd: 1 nM

B7: anti-TIM-1 monoclonal antibody 2.70 (antibody, V domains shown)
VH: B6 VH with A7S, T28I, R30S, S31R, Y59L, T61A, V97A
VL: DIVMTQTPLSLPVTPGEPASISCRSSRSLLDSDDGNTYLDWYLQKPGQSPQLLIYTLSYRASGVPDRFSGSGSGTDFTLKISRVEAEDVGVYYCMQRVEFPITFGQGTRLEIKR
[2]
  Kd: 2.71 nM

B8: anti-TIM-1 monoclonal antibody 2.70.2 (antibody, human IgG4, kappa, V domains shown)
VH: B6 VH with A7S, T28I, R30S, S31R, Y59L, T61A, V97A
VL: B7 VL
notes: also called mAb 2.70.2; mAb2.70.2
[4]
  binding result: no binding
[5]
  binding result: no binding
[1]
  Geo Mean Ratio (relative to negative control): 8.8 ratio
[3]
  Geo Mean Ratio (relative to negative control): 19.4 ratio
